Test results published in patent publication US20180172684A1.

Columns and labels:
[1] = biological target: antibody P30(b) (Fucal Research product Mp-P30-9-AB); test: competitive inhibition ELISA, full-length P30 coated, 5 ug/mL P30(b) + peptide 1 at x20 the antibody concentration
[2] = biological target: antibody P30(a) (Fucal Research product Mp-P30-3-AB); test: competitive inhibition ELISA, full-length P30 coated, 5 ug/mL P30(a) + peptide 1 at x320 the antibody concentration
[3] = biological target: antibody P30(b) (Fucal Research product Mp-P30-9-AB); test: competitive inhibition ELISA, full-length P30 coated, 5 ug/mL P30(b) + peptide 1 at x1 the antibody concentration
[4] = biological target: antibody P30(a) (Fucal Research product Mp-P30-3-AB); test: competitive inhibition ELISA, full-length P30 coated, 5 ug/mL P30(a) + peptide 1 at x20 the antibody concentration
[5] = biological target: antibody P30(b) (Fucal Research product Mp-P30-9-AB); test: competitive inhibition ELISA, full-length P30 coated, 5 ug/mL P30(b) + peptide 1 at x640 the antibody concentration
[6] = biological target: antibody P30(a) (Fucal Research product Mp-P30-3-AB); test: competitive inhibition ELISA, full-length P30 coated, 5 ug/mL P30(a) + peptide 1 at x640 the antibody concentration
[7] = biological target: antibody P30(b) (Fucal Research product Mp-P30-9-AB); test: competitive inhibition ELISA, full-length P30 coated, 5 ug/mL P30(b) + peptide 1 at x160 the antibody concentration
[8] = biological target: antibody P30(a) (Fucal Research product Mp-P30-3-AB); test: competitive inhibition ELISA, full-length P30 coated at 4 ng/mL, 5 ug/mL P30(a) + peptide 1 at 40 times the antibody amount
[9] = biological target: antibody P30(b) (Fucal Research product Mp-P30-9-AB); test: competitive inhibition ELISA, full-length P30 coated, 5 ug/mL P30(b) + peptide 1 at x10 the antibody concentration
[10] = biological target: antibody P30(a) (Fucal Research product Mp-P30-3-AB); test: competitive inhibition ELISA, full-length P30 coated, 5 ug/mL P30(a) + peptide 1 at x1 the antibody concentration
[11] = biological target: antibody P30(a) (Fucal Research product Mp-P30-3-AB); test: competitive inhibition ELISA, full-length P30 coated, 5 ug/mL P30(a) + peptide 1 at x160 the antibody concentration
[12] = biological target: antibody P30(b) (Fucal Research product Mp-P30-9-AB); test: competitive inhibition ELISA, full-length P30 coated, 5 ug/mL P30(b) + peptide 1 at x320 the antibody concentration
[13] = biological target: antibody P30(a) (Fucal Research product Mp-P30-3-AB); test: competitive inhibition ELISA, full-length P30 coated, 5 ug/mL P30(a) + peptide 1 at x10 the antibody concentration
[14] = biological target: antibody P30(b) (Fucal Research product Mp-P30-9-AB); test: immunochromatography competition, 400 ng peptide 1 developed with P30Ag 10 pg/mL, P30(b) label and detection
[15] = biological target: antibody P30(a) (Fucal Research product Mp-P30-3-AB); test: immunochromatography competition, 400 ng peptide 1 developed with P30Ag 10 pg/mL, P30(a) label and detection
[16] = biological target: antibody P30(b) (Fucal Research product Mp-P30-9-AB); test: competitive inhibition ELISA, full-length P30 coated, 5 ug/mL P30(b) + peptide 1 at x40 the antibody concentration
[17] = biological target: antibody P30(b) (Fucal Research product Mp-P30-9-AB); test: competitive inhibition ELISA, full-length P30 coated, 5 ug/mL P30(b) + peptide 1 at x80 the antibody concentration
[18] = biological target: antibody P30(a) (Fucal Research product Mp-P30-3-AB); test: competitive inhibition ELISA, full-length P30 coated, 5 ug/mL P30(a) + peptide 1 at x80 the antibody concentration
[19] = biological target: antibody P30(a) (Fucal Research product Mp-P30-3-AB); test: competitive inhibition ELISA, full-length P30 coated, 5 ug/mL P30(a) + peptide 1 at x40 the antibody concentration

Binder PGMAPRPGMPPHPGMAPR [Peptide 1 (SEQ ID NO: 6: …)] has a Color intensity (Abs) [1] of 0.228 Abs, a Color intensity (Abs) [2] of 0.132 Abs and a Percentage reduction of color intensity (%) [2] of 68%. The Color intensity (Abs) [3] was 0.226 Abs, the Color intensity (Abs) [4] was 0.322 Abs and the Percentage reduction of color intensity (%) [4] was 22%. It also gave a Color intensity (Abs) [5] of 0.225 Abs, a Color intensity (Abs) [6] of 0.12 Abs and a Percentage reduction of color intensity (%) [6] of 71%. The Color intensity (Abs) [7] was 0.223 Abs, the percentage reduction of absorbance [8] was > 30% and the Color intensity (Abs) [9] was 0.256 Abs. For the same binder, the Color intensity (Abs) [10] was 0.37 Abs, the Percentage reduction of color intensity (%) [10] was 10% and the Color intensity (Abs) [11] was 0.134 Abs. For the same binder, the Percentage reduction of color intensity (%) [11] was 67%, the Color intensity (Abs) [12] was 0.23 Abs and the Color intensity (Abs) [13] was 0.341 Abs. It also gave a Percentage reduction of color intensity (%) [13] of 17%, a Color intensity after 15 min [14] of 60.9 mAbs and a Color intensity after 15 min [15] of 100 mAbs. For the same binder, the Color intensity (Abs) [16] was 0.232 Abs, the Color intensity (Abs) [17] was 0.237 Abs and the Color intensity (Abs) [18] was 0.17 Abs. It also gave a Percentage reduction of color intensity (%) [18] of 59%, a Color intensity (Abs) [19] of 0.24 Abs and a Percentage reduction of color intensity (%) [19] of 42%.
